From the supplement of paper PMC9170038

System: MS2 coat protein
Experiment: apparent KD of MS2 coat protein; designed switch direction (-1 OFF switch, 1 ON switch): 1; higher = weaker reporter binding
Method in brief: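 Designed RNA switches sharing common flanks were transcribed on Illumina chips by stalled E. coli RNA polymerase. They were titrated with SNAP-549-labelled MS2 coat protein, from 0.7 or 1.5 nM doubling to 3 µM, in Tris-HCl pH 7.5 buffer with KCl, MgCl2, BSA, DTT, tRNA and Tween-20. Titrations ran without input, with 200 uM small-molecule ligand, or with an oligonucleotide input. The apparent KD of each design is the median over its clusters, after curve-fitting of normalised cluster fluorescence.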

[1] = input ligand: microRNA oligo, concentration not stated
[2] = Eterna round: R95, input ligand: FMN 200 uM
[3] = Eterna round: R95, input ligand: microRNA oligo, concentration not stated
[4] = Eterna round: R95, input ligand: none

Sequence | apparent KD of MS2 coat protein (input ligand: FMN 200 uM) | apparent KD of MS2 coat protein [1] | apparent KD of MS2 coat protein (input ligand: none) | apparent KD of MS2 coat protein [2] | apparent KD of MS2 coat protein [3] | apparent KD of MS2 coat protein [4]
UAUCGUUUGAUAGGAUAUCGCUAUACAUGAGGAUCACCCAUGUUUACCACGCUGGUUUUUCAUACCGAGAAGGAUUCUGAUGAA [salish99_SSNG02_r04_004] (Eterna round: R96, puzzle: Same State NG 2) | 29 nM | 19.6 nM | 32.5 nM |  |  | 
UGUUGUAUUACAGGAUAUCUAUUAGUUUCAUUUAGAGAAGGGUAUUCACAUGAGGAUCACCCAUGUAUAUACGAGGAAGUUGUG [JMF's solution 95] (Eterna round: R96, puzzle: Same State NG 1) | 55 nM | 44.4 nM | 59.6 nM |  |  | 
UUUAGUGGCGGGCAGGAUAUGUAUUAAAAUACAUGAGGAUCACCCAUGUGCGGGUAUAACACCCGACAGAAGGGCCAAUCGCUAC [Laonerce - 7] (puzzle: Same State 2) |  |  |  | 20.9 nM | 275 nM | 397 nM
AGUCCAGCCUGAGCUGGACAAAAGCAUGUACAUGAGGAUCACCCAUGUUCAUGUACAAGCUUUUUGCUCGUCUUUAA [salish99_208a_r3_096x] (puzzle: Sensor for hsa-mir-208a) |  |  |  | 658 nM | 14.5 nM | 985 nM
UUAUCUAUCCGAGGAUAUCCAUAUAAUUUACAUGAGGAUCACCCAUGUUAUUGGGAGUUUUUUUAGGAGAAGGCGGAUGUAGAU [JR_SSNG2_Sub052] (Eterna round: R96, puzzle: Same State NG 2) | 82.5 nM | 79.2 nM | 107 nM |  |  | 
CUAACAACAAGUUGCAGUGUUCGUCUUUAACAUGAGGAUCACCCAUGUAAUAGCCCGGUAGAAGCGCUCGGGCCACC [Anaesrain] (puzzle: Sensor for hsa-mir-208a) |  |  |  | 32.8 nM | 38.1 nM | 36.3 nM
AGGCAAGCUUUUUGCUGGUAUGAAGGAGAACAUGAGGAUCACCCAUGUAUUAGAGGUGUAGAGGAUUUGAGAAAGAA [JR_SHM208A_Sub003] (puzzle: Sensor for hsa-mir-208a) |  |  |  | 96.8 nM | 91.8 nM | 134 nM
AGUCCAGCAUGAGCUGGACAAAAGCAUGUACAUGAGGAUCACCCAUGUCAUGUACAAGCUUUUUGCUCGUCUUAAUA [Mat - hsa-mir-208a - Mod of JL - D35] (puzzle: Sensor for hsa-mir-208a) |  |  |  | 513 nM | 15.9 nM | 534 nM
UUUAGUAGCGGGCAGGAUAUGUAUUAAAAUACAUGAGGAUCACCCAUGUGCGGGUAUAACACCCGACAGAAGGGCCAAUCGCUAC [Laonerce - 8] (puzzle: Same State 2) |  |  |  | 22.3 nM | 162 nM | 237 nM
GGAGGACAUGAGGAUCACCCAUGUGGAUGGGCGCUAGGAUAUGCGAGAGGGUGGAGAGAAGCAGAAGGAGUGGAUA [JR_SS1_Sub038] (puzzle: Same State 1) |  |  |  | 76.7 nM | 62.9 nM | 75 nM
GUUACAUGAGGAUCACCCAUGUAUGUGUGGGAGUAAGUGUCUUAGGAUAUCUGGUAUUUAAUUUAAGAGAAGGAAGAUUGUUGU [JMF's solution 30] (Eterna round: R96, puzzle: Same State NG 3) | 91.9 nM | 63.7 nM | 77.3 nM |  |  | 
UACAAUCUAUCUGAGGAUAUCAUGAAUUUAACAUGAGGAUCACCCAUGUGCAGGAAAACUGCAUAUGAGAAGGCAGAUAGAUUGU [salish99_ss2_r3_061] (puzzle: Same State 2) |  |  |  | 71.3 nM | 28 nM | 94.1 nM
UGAAUGGUGAUAGGAUAUACAUGAGGAAUCCUCGUAGAAGGAUCAUGACAUGAGGAUCACCCAUGUAGCGCUCCGUAGAGCGCA [JL SSNG1 1.21] (Eterna round: R96, puzzle: Same State NG 1) | 53 nM | 19.7 nM | 154 nM |  |  | 
